Results on three molecules are retold here after article PMC8160579 (The Journal of Cell Biology, 2021).

First the molecules themselves.
B1: Myc-SAMM50 WT, in vitro translated (natural protein)
chain: MGTVHARSLEPLPSSGPDFGGLGEEAEFVEVEPEAKQEILENKDVVVQHVHFDGLGRTKDDIIICEIGDVFKAKNLIEVMRKSHEAREKLLRLGIFRQVDVLIDTCQGDDALPNGLDVTFEVTELRRLTGSYNTMVGNNEGSMVLGLKLPNLLGRAEKVTFQFSYGTKETSYGLSFFKPRPGNFERNFSVNLYKVTGQFPWSSLRETDRGMSAEYSFPIWKTSHTVKWEGVWRELGCLSRTASFAVRKESGHSLKSSLSHAMVIDSRNSSILPRRGALLKVNQELAGYTGGDVSFIKEDFELQLNKQLIFDSVFSASFWGGMLVPIGDKPSSIADRFYLGGPTSIRGFSMHSIGPQSEGDYLGGEAYWAGGLHLYTPLPFRPGQGGFGELFRTHFFLNAGNLCNLNYGEGPKAHIRKLAECIRWSYGAGIVLRLGNIARLELNYCVPMGVQTGDRICDGVQFGAGIRFL
B2: biotinylated SAMM50 LIR peptide (residues 18–41) (peptide)
peptide: DFGGLGEEAEFVEVEPEAKQEILE
modifications: also: biotinylated, position not given here
B3: GABARAP Q59E (natural protein)
chain: MKFVYKEEHPFEKRRSEGEKIRKKYPDRVPVIVEKAPKARIGDLDKKKYLVPSDLTVGEFYFLIRKRIHLRAEDALFFFVNNVIPPTSATMGQLYQEHHEEDFFLYIAYSDESVYGL

Where no end group is shown, it is not given here. Bounds are passed on as bounds.

The target of one assay is GST-GABARAP Y49A (human, UniProt O95166 1-117, Y49A). The assay can be described thus: pull-down.
Another assay addresses GABARAPL1, purified (human, UniProt Q9H0R8 1-117). The assay can be described thus: BLI.
In a further assay the target is GABARAP, purified (human, UniProt O95166 1-117). The experiment in a line: BLI. On the technique in general: BLI is a label-free optical method that tracks binding on a fibre tip over time.
The target of another assay is LC3A, purified (human, UniProt Q9H492 1-121). The assay can be described thus: BLI.
The target in a further assay is LC3C, purified (human, UniProt Q9BXW4 1-126). The experiment in a line: BLI.
The target of assay [1] is B2. The assay can be described thus: BLI.

What is called Kd is the constant that tells how readily two partners part at equilibrium. High values mean a looser complex, low ones a tighter complex.

GABARAP, purified, sequence (O95166 whole entry): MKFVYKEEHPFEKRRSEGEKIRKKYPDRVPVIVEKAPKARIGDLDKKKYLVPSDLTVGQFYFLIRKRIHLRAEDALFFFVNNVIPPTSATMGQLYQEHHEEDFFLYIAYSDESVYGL
LC3C, purified, sequence (Q9BXW4 1-126): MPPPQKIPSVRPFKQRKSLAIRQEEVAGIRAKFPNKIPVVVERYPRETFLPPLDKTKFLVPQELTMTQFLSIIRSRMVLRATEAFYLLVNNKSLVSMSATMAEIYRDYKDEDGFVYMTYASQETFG
GABARAPL1, purified, sequence (Q9H0R8 whole entry): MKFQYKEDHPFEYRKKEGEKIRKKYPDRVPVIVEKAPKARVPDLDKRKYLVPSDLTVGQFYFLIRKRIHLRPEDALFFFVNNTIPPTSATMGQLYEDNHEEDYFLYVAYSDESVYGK

For B1, the “reduction in binding relative to WT GABARAP” value with GST-GABARAP Y49A was above 60%.

B2: the Kd worked out at 10 µM with GABARAPL1, purified; 23.9 µM with GABARAP, purified; 27.6 µM with LC3A, purified; 57.2 µM with LC3C, purified.

Consider B3, for which the “fold reduction of binding relative to WT GABARAP” value in assay [1] was above 3.5 fold.
